Test results: patent publication US20220340924

Target: T1, MYB46-GFP fusion
T1 chain: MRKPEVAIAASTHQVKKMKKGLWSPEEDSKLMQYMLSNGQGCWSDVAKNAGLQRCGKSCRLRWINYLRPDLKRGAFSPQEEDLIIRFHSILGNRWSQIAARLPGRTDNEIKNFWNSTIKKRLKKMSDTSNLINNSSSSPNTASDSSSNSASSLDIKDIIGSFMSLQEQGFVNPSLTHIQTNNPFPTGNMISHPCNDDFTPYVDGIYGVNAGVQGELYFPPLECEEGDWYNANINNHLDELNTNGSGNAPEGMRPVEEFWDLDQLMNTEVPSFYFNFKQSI

B1: CAMPK6-HA (hemagglutinin conjugated CAMPK6) (protein)
chain: MDGGSGQPAADTEMTEAPGGFPAAAPSPQMPGIENIPATLSHGGRFIQYNIFGNIFEVTAKYKPPIMPIGKGAYGIVCSAMNSETNESVAIKKIANAFDNKIDAKRTLREIKLLRHMDHENIVAIRDIIPPPLRNAFNDVYIAYELMDTDLHQIIRSNQALSEEHCQYFLYQILRGLKYIHSANVLHRDLKPSNLLLNANCDLKICDFGLARVTSESGFMTAYVVTRWYRAPELLLNSSDYTAAIDVWSVGCIFMELMDRKPLFPGRDHVHQLRLLMELIGTPSEEELEFLNENAKRYIRQLPPYPRQSITDKFPTVHPLAIDLIEKMLTFDPRRRITVLDALAHPYLNSLHDISDEPECTIPFNFDFENHALSEEQMKELIYREALAFNPEYQQ
  immunocomplex kinase assay (phosphorylation of MYB46): CAMPK6 directly phosphorylates MYB46
